Read-outs that look alike come from different tables or passages of the source.
What was measured:
[1] = molecular target: chicken lysozyme (chicken) (UniProt P00698); test: ELISA, lysozyme (100 ug/ml) coated well blocked with ELK; ~50 ng iMab per well, purified by heat (60 C) solubilisation; anti-VSV-HRP
[2] = molecular target: chicken lysozyme (chicken) (UniProt P00698); test: ELISA, lysozyme (100 ug/ml) coated well blocked with ELK; ~50 ng iMab per well, urea-purified; anti-VSV-HRP
[3] = molecular target: chicken lysozyme (chicken) (UniProt P00698)
[4] = molecular target: ELK (3% skim milk powder solution); test: ELISA, ELK-coated control well; ~5 ng iMab per well, urea-purified; anti-VSV-HRP

Chain of UniProt P00698 (P00698 19-147 limits assumed): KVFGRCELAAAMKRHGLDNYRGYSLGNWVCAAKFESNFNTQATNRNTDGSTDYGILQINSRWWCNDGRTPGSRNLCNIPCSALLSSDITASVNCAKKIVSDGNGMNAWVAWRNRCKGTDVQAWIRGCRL

Row | Binder | Absorbtion (450 nm) (absorbance (450 nm)) [1] | Absorbtion (450 nm) (absorbance (450 nm)) [2] | Absorbtion (450 nm) (absorbance (450 nm)) [3] | Absorbtion (450 nm) (absorbance (450 nm)) [4]
1 | iMab100 (designed binder, not shown: small tags and cut ends) NVKLVEKGGNFVENDDDLKLTCRAEGYTIGPYCMGWFRQAPNDDSTNVATINMGGGITYYGDSVKERFDIRRDNASNTVTLSMDDLQPEDSAEYNCAGDSTIYASYYECGHGLSTGGYGYDSHYRGQGTDVTVSS | 0.369 | 0.494 | – | –
2 | iMab1200 (designed binder) HGLPMEKRGNFIVGQNCSLTCPASGYTIGPQCVFNCYFNSALAFSTENMGEWTLDMVFSDAGIYTMCAADSTIYASYYECGHGLSTGGYGYNPVSLGSFWDSP | – | – | 0.061 | 0.04
